Results published in the RNAGym collection of RNA variant scans (doi:10.7554/elife.90254).

B1: LINE1-mini (parent)
chain: GGCAGAGCUCAACACAGCGUGGCAAAGUGGCUGUGGCUAGACUGCC

Variants of: B1
Experiment: self-cleavage, relative activity (ratio to wild type); higher = more cleavage; in vitro, sequencing; the parent is a self-cleaving ribozyme

Point of comparison: GGCAGAGCUAAACACAGCGUGGCUAAGUGGCUGUGGCUAGACUGCC, self-cleavage 0.05. Against it:
- GGCAGAGCUGGACACAGCGUGGCAAAGUGGCUGUGGCUAGACUGCC — lower, 0.03
- GGCAGAGCUGUACACAGCGUGGCAAAGUGGCUGUGGCUAGACUGCC — lower, 0.04
- GGCAGAGCUGCACACAGCGUGGCAAAGUGGCUGUGGCUAGACUGCC — lower, 0.02
- GGCAGAGCUAAACACAGCGUGGCAAAUUGGCUGUGGCUAGACUGCC — higher, 0.06
- GGCAGAGCUAAACACAGCGUGGCAAACUGGCUGUGGCUAGACUGCC — lower, 0.04
- GGCAGAGCUAAACACAGCGUGGCAAAAUGGCUGUGGCUAGACUGCC — higher, 0.06
- GGCAGAGCUAAACACAGCGUGGCAAAGUGGCUGUGGCUAGACUGCA — the same, 0.05
- GGCAGAGCUAAACACAGCGUGGCAAAGUGGCUGUGGCUAGACUGCG — lower, 0.04
- GGCAGAGCUAAACACAGCGUGGCAAAGUGGCUGUGGCUAGACUGCU — higher, 0.07
- GGCAGAGCUAAAGACAGCGUGGCAAAGUGGCUGUGGCUAGACUGCC — lower, 0.03
- GGCAGAGCUAAAAACAGCGUGGCAAAGUGGCUGUGGCUAGACUGCC — lower, 0.03
- GGCAGAGCUAAAUACAGCGUGGCAAAGUGGCUGUGGCUAGACUGCC — lower, 0.04
- GGCAGAGCUAAACACAGCGUGGCAAAGUGGCUGUGGCUAGAGUGCC — higher, 0.16
- GGCAGAGCUAAACACAGCGUGGCAAAGUGGCUGUGGCUAGAUUGCC — lower, 0.03
- GGCAGAGCUAAACACAGCGUGGCAAAGUGGCUGUGGCUAGAAUGCC — lower, 0.02
- GGCAGAGCUAAACAGAGCGUGGCAAAGUGGCUGUGGCUAGACUGCC — lower, 0.04
- GGCAGAGCUAAACAAAGCGUGGCAAAGUGGCUGUGGCUAGACUGCC — lower, 0.04
- GGCAGAGCUAAACAUAGCGUGGCAAAGUGGCUGUGGCUAGACUGCC — higher, 0.08
- GGCAGAGCUAAACACAGCGUGGCAAUGUGGCUGUGGCUAGACUGCC — higher, 0.06
- GGCAGAGCUAAACACAGCGUGGCAAGGUGGCUGUGGCUAGACUGCC — higher, 0.12
- GGCAGAGCUAAACACAGCGUGGCAACGUGGCUGUGGCUAGACUGCC — lower, 0.04
- GGCAGAGCUAAACACAGCGUGGCAAAGUAGCUGUGGCUAGACUGCC — higher, 0.06
- GGCAGAGCUAAACACAGCGUGGCAAAGUCGCUGUGGCUAGACUGCC — lower, 0.04
- GGCAGAGCUAAACACAGCGUGGCAAAGUUGCUGUGGCUAGACUGCC — lower, 0.04
- GGCAGAGCUAAACACAGCGUGGGAAAGUGGCUGUGGCUAGACUGCC — higher, 0.07
- GGCAGAGCUAAACACAGCGUGGUAAAGUGGCUGUGGCUAGACUGCC — higher, 0.06
- GGCAGAGCUAAACACAGCGUGGAAAAGUGGCUGUGGCUAGACUGCC — higher, 0.06
- GGCAGAGCUAAACACAGCGUGGCAAAGUGGCUGGGGCUAGACUGCC — lower, 0.04
- GGCAGAGCUAAACACAGCGUGGCAAAGUGGCUGAGGCUAGACUGCC — the same, 0.05
- GGCAGAGCUAAACACAGCGUGGCAAAGUGGCUGCGGCUAGACUGCC — lower, 0.04
- GGCAGAGCUAAACACAGCGUGGCAAAGUGUCUGUGGCUAGACUGCC — higher, 0.09
- GGCAGAGCUAAACACAGCGUGGCAAAGUGCCUGUGGCUAGACUGCC — higher, 0.08
- GGCAGAGCUAAACACAGCGUGGCAAAGUGACUGUGGCUAGACUGCC — higher, 0.1
- GGCAGAGCUAAACACAGCGUGGCAAAGCGGCUGUGGCUAGACUGCC — higher, 0.07
- GGCAGAGCUAAACACAGCGUGGCAAAGAGGCUGUGGCUAGACUGCC — lower, 0.04
- GGCAGAGCUAAACACAGCGUGGCAAAGGGGCUGUGGCUAGACUGCC — higher, 0.06
- GGCAGAGCUAAACACAGGGUGGCAAAGUGGCUGUGGCUAGACUGCC — lower, 0.04
- GGCAGAGCUAAACACAGUGUGGCAAAGUGGCUGUGGCUAGACUGCC — higher, 0.07
- GGCAGAGCUAAACACAGAGUGGCAAAGUGGCUGUGGCUAGACUGCC — higher, 0.07
- GGCAGAGCUAAACACAGCGUGGCAAAGUGGCUGUGGCUAGUCUGCC — lower, 0.02
- GGCAGAGCUAAACACAGCGUGGCAAAGUGGCUGUGGCUAGCCUGCC — lower, 0.04
- GGCAGAGCUAAACACAGCGUGGCAAAGUGGCUGUGGCUAGGCUGCC — lower, 0.03
- GGCAGAGCUAAACACAGCGUUGCAAAGUGGCUGUGGCUAGACUGCC — lower, 0.04
- GGCAGAGCUAAACACAGCGUAGCAAAGUGGCUGUGGCUAGACUGCC — higher, 0.08
- GGCAGAGCUAAACACAGCGUCGCAAAGUGGCUGUGGCUAGACUGCC — lower, 0.04
- GGCAGAGCUAAACCCAGCGUGGCAAAGUGGCUGUGGCUAGACUGCC — lower, 0.02
- GGCAGAGCUAAACGCAGCGUGGCAAAGUGGCUGUGGCUAGACUGCC — higher, 0.06
- GGCAGAGCUAAACUCAGCGUGGCAAAGUGGCUGUGGCUAGACUGCC — the same, 0.05
- GGCAGAGCUAAACACAGCGUGGCAAAGUGGCUGUGGUUAGACUGCC — lower, 0.01
- GGCAGAGCUAAACACAGCGUGGCAAAGUGGCUGUGGAUAGACUGCC — lower, 0.01
- GGCAGAGCUAAACACAGCGUGGCAAAGUGGCUGUGGGUAGACUGCC — lower, 0.01
- GGCAGAGCUAAACACAGCGUGCCAAAGUGGCUGUGGCUAGACUGCC — lower, 0.03
- GGCAGAGCUAAACACAGCGUGACAAAGUGGCUGUGGCUAGACUGCC — the same, 0.05
- GGCAGAGCUAAACACAGCGUGUCAAAGUGGCUGUGGCUAGACUGCC — higher, 0.07
- GGCAGAGCUAAACACAGCGUGGCAAAGUGGCUGUGGCUAGACGGCC — lower, 0
- GGCAGAGCUAAACACAGCGUGGCAAAGUGGCUGUGGCUAGACAGCC — lower, 0.01
- GGCAGAGCUAAACACAGCGUGGCAAAGUGGCUGUGGCUAGACCGCC — lower, 0.03
- GGCAGAGCUGAUCACAGCGUGGCAAAGUGGCUGUGGCUAGACUGCC — lower, 0.03
- GGCAGAGCUGACCACAGCGUGGCAAAGUGGCUGUGGCUAGACUGCC — lower, 0.03
- GGCAGAGCUGAGCACAGCGUGGCAAAGUGGCUGUGGCUAGACUGCC — lower, 0.03
- GGCAGAGCUAAACACAGCGUGGCAAAGUGGCAGUGGCUAGACUGCC — lower, 0.02
- GGCAGAGCUAAACACAGCGUGGCAAAGUGGCCGUGGCUAGACUGCC — lower, 0.03
- GGCAGAGCUAAACACAGCGUGGCAAAGUGGCGGUGGCUAGACUGCC — lower, 0.03
- GGCAGAGCUAAACACAGCGUGGCAAAGUGGCUGUUGCUAGACUGCC — lower, 0.03
- GGCAGAGCUAAACACAGCGUGGCAAAGUGGCUGUCGCUAGACUGCC — lower, 0.02
- GGCAGAGCUAAACACAGCGUGGCAAAGUGGCUGUAGCUAGACUGCC — lower, 0.04
- GGCAGAGCUAAACACAGCGUGGCAAAGUGGCUGUGGCUAUACUGCC — lower, 0.03
- GGCAGAGCUAAACACAGCGUGGCAAAGUGGCUGUGGCUAAACUGCC — lower, 0.02
- GGCAGAGCUAAACACAGCGUGGCAAAGUGGCUGUGGCUACACUGCC — lower, 0.02
- GGCAGAGCUAAACACAGCGUGGCAAAGUGGCUGUGGCUAGACUACC — higher, 0.07
- GGCAGAGCUAAACACAGCGUGGCAAAGUGGCUGUGGCUAGACUCCC — higher, 0.07
- GGCAGAGCUAAACACAGCGUGGCAAAGUGGCUGUGGCUAGACUUCC — lower, 0.03
- GGCAGAGCUAAACACAGCGUGGCAAAGUGGAUGUGGCUAGACUGCC — lower, 0.03
- GGCAGAGCUAAACACAGCGUGGCAAAGUGGUUGUGGCUAGACUGCC — lower, 0.04
- GGCAGAGCUAAACACAGCGUGGCAAAGUGGGUGUGGCUAGACUGCC — lower, 0.03
- GGCAGAGCUAAACACGGCGUGGCAAAGUGGCUGUGGCUAGACUGCC — higher, 0.07
- GGCAGAGCUAAACACCGCGUGGCAAAGUGGCUGUGGCUAGACUGCC — lower, 0.04
- GGCAGAGCUAAACACUGCGUGGCAAAGUGGCUGUGGCUAGACUGCC — the same, 0.05
- GGCAGAGCUAAACACAGCGUGGCAAAGUGGCUGUGUCUAGACUGCC — lower, 0.04
- GGCAGAGCUAAACACAGCGUGGCAAAGUGGCUGUGACUAGACUGCC — lower, 0.02
- GGCAGAGCUAAACACAGCGUGGCAAAGUGGCUGUGCCUAGACUGCC — lower, 0.02
- GGCAGAGCUAAACACAGCGUGGCAAAGUGGCUUUGGCUAGACUGCC — the same, 0.05
- GGCAGAGCUAAACACAGCGUGGCAAAGUGGCUCUGGCUAGACUGCC — lower, 0.03
- GGCAGAGCUAAACACAGCGUGGCAAAGUGGCUAUGGCUAGACUGCC — lower, 0.04
- GGCAGAGCUAAACACAGCGUGGCAGAGUGGCUGUGGCUAGACUGCC — lower, 0.04
- GGCAGAGCUAAACACAGCGUGGCAUAGUGGCUGUGGCUAGACUGCC — higher, 0.1
- GGCAGAGCUAAACACAGCGUGGCACAGUGGCUGUGGCUAGACUGCC — the same, 0.05
- GGCAGAGCUAAACACAGCGCGGCAAAGUGGCUGUGGCUAGACUGCC — higher, 0.06
- GGCAGAGCUAAACACAGCGAGGCAAAGUGGCUGUGGCUAGACUGCC — the same, 0.05
- GGCAGAGCUAAACACAGCGGGGCAAAGUGGCUGUGGCUAGACUGCC — lower, 0.03
- GGCAGAGCUAAACACAGCGUGGCCAAGUGGCUGUGGCUAGACUGCC — lower, 0.03
- GGCAGAGCUAAACACAGCGUGGCGAAGUGGCUGUGGCUAGACUGCC — higher, 0.06
- GGCAGAGCUAAACACAUCGUGGCAAAGUGGCUGUGGCUAGACUGCC — the same, 0.05
- GGCAGAGCUAAACACACCGUGGCAAAGUGGCUGUGGCUAGACUGCC — higher, 0.1
- GGCAGAGCUAAACACAACGUGGCAAAGUGGCUGUGGCUAGACUGCC — lower, 0.04
- GGCAGAGCUAAACACAGCGUGGCAAAGUGGCUGUGGCGAGACUGCC — the same, 0.05
- GGCAGAGCUAAACACAGCGUGGCAAAGUGGCUGUGGCCAGACUGCC — higher, 0.16
- GGCAGAGCUAAACACAGCGUGGCAAAGUGGCUGUGGCAAGACUGCC — higher, 0.15
- GGCAGAGCUAAACACAGCCUGGCAAAGUGGCUGUGGCUAGACUGCC — the same, 0.05
- GGCAGAGCUAAACACAGCUUGGCAAAGUGGCUGUGGCUAGACUGCC — higher, 0.06
- GGCAGAGCUAAACACAGCAUGGCAAAGUGGCUGUGGCUAGACUGCC — higher, 0.07
- GGCAGAGCUGAACACAGCGUGGCAAAGUGGCUGUGGCUAGACUGCC — higher, 0.11
- GGCAGAGCUAAACACAGCGUGGCAAAGUGGCUGUGGCUAGACUGGC — lower, 0.03
- GGCAGAGCUAAACACAGCGUGGCAAAGUGGCUGUGGCUAGACUGUC — higher, 0.07
- GGCAGAGCUAAACACAGCGUGGCAAAGUGGCUGUGGCUAGACUGAC — lower, 0.04
- GGCAGAGCUAAUCACAGCGUGGCAAAGUGGCUGUGGCUAGACUGCC — lower, 0.04
- GGCAGAGCUAACCACAGCGUGGCAAAGUGGCUGUGGCUAGACUGCC — lower, 0.04
- GGCAGAGCUAAGCACAGCGUGGCAAAGUGGCUGUGGCUAGACUGCC — lower, 0.02
- GGCAGAGCUAAACACAGCGUGGCAAAGUGGCUGUGGCUCGACUGCC — the same, 0.05
- GGCAGAGCUAAACACAGCGUGGCAAAGUGGCUGUGGCUGGACUGCC — lower, 0.04
- GGCAGAGCUAAACACAGCGUGGCAAAGUGGCUGUGGCUUGACUGCC — higher, 0.24
